Settings in all cases: 50 mM citrate buffer, 10% (v/v) DMSO
Data set [1] has as its system O=c1c(O[C@@H]2O[C@H](CO)[C@@H](O)[C@H](O)[C@H]2O)c(-c2ccc(O)c(O)c2)oc2cc(O)cc(O)c12. Kind of data set: purified protein.
In data set [2] the test system is C[C@@H]1O[C@@H](OC[C@H]2O[C@@H](Oc3c(-c4ccc(O)c(O)c4)oc4cc(O)cc(O)c4c3=O)[C@H](O)[C@@H](O)[C@@H]2O)[C@H](O)[C@H](O)[C@H]1O. Kind of data set: purified protein.
For data set [3], the system named is COc1cc(-c2oc3cc(O)cc(O)c3c(=O)c2O[C@@H]2O[C@H](CO[C@@H]3O[C@@H](C)[C@H](O)[C@@H](O)[C@H]3O)[C@@H](O)[C@H](O)[C@H]2O)ccc1O. Briefly: purified protein.
Data set [4] deals with COc1ccc([C@@H]2CC(=O)c3c(O)cc(O[C@@H]4O[C@H](CO[C@@H]5O[C@@H](C)[C@H](O)[C@@H](O)[C@H]5O)[C@@H](O)[C@H](O)[C@H]4O)cc3O2)cc1O. Kind of data set: purified protein.
Substrate in data set [5]: C[C@@H]1O[C@@H](OC[C@H]2O[C@@H](Oc3c(-c4ccc(O)c(O)c4)oc4cc(O)cc(O)c4c3=O)[C@H](O)[C@@H](O)[C@@H]2O)[C@H](O)[C@H](O)[C@H]1O
Kind of data set: hydrolysis, aglycone release by HPLC. It is filed as biochemical, Penicillium rubens. An excerpt: (§1) hydrolysis, aglycone release by HPLC on PcGlc

Substrate in data set [6]: COc1ccc([C@@H]2CC(=O)c3c(O)cc(O[C@@H]4O[C@H](CO[C@@H]5O[C@@H](C)[C@H](O)[C@@H](O)[C@H]5O)[C@@H](O)[C@H](O)[C@H]4O)cc3O2)cc1O
Briefly: hydrolysis, aglycone release by HPLC. Type of data set: biochemical, Penicillium rubens.
Text: as §1

Substrate in data set [7]: COc1cc(-c2oc3cc(O)cc(O)c3c(=O)c2O[C@@H]2O[C@H](CO[C@@H]3O[C@@H](C)[C@H](O)[C@@H](O)[C@H]3O)[C@@H](O)[C@H](O)[C@H]2O)ccc1O
Kind of data set: hydrolysis, aglycone release by HPLC. Type of data set: biochemical, Penicillium rubens.
Text: as §1

Substrate in data set [8]: O=c1c(O[C@@H]2O[C@H](CO)[C@@H](O)[C@H](O)[C@H]2O)c(-c2ccc(O)c(O)c2)oc2cc(O)cc(O)c12
Kind of data set: hydrolysis, aglycone release by HPLC. It is filed as biochemical, Penicillium rubens.
Text: as §1

As usually defined, the Km is the concentration of substrate that gives half-maximal velocity. One may read the kcat as the maximal rate divided by the concentration of active sites. As a reminder, the kcat/Km is the turnover number divided by the Michaelis constant. McGlc (Mucor circinelloides): the Km in data set [1] turned out to be 40 ± 10 µM; in data set [2] it was 120 ± 30 µM; in data set [3], 210 ± 90 µM; in data set [4], 4800 ± 100 µM. Also, the kcat in data set [1] is 53.9 ± 1.9 s⁻¹; in data set [2], 22.7 ± 0.5 s⁻¹; in data set [3], 69.1 ± 6 s⁻¹; in data set [4], 23 ± 1.7 s⁻¹. The kcat/Km stood at 1.35e+06 M⁻¹ s⁻¹ in data set [1], 189000 M⁻¹ s⁻¹ in data set [2], 257000 M⁻¹ s⁻¹ in data set [3] and 4800 M⁻¹ s⁻¹ in data set [4].

B1: PcGlc (Penicillium rubens Wisconsin 54-1255) (protein)
chain: TPTSFHLSPNNNISHDYINWRTFHGRGVNLGGWLQQESTIDTSWWSTYSGGASDEWNLCAQLGSKCGPVLEHRYKTFITTRDIDTLASSGVTVLRIPTSYAAWVRVPGSQLYSGKQKEHIHRIATYAIEKYDMHIILDIHSLPGGINGLDIGEAVGHWGWYNNDTALKYSLDAVDSALHFIQFSSGHPQSYTLSPINEPVDNRDFSTFGTPAALSEAGASWVLKYLHAVIDRTKKVNPRIPVMCQGSFKPETYWSPHFDAGANIVFDEHHYYFQYSNSTSANLPEFLCQDAKKSAGDGKFPTFVGEWAIEASDNDLGLRGQNLQAGISAFGQFTRGSSYWTAKFSSNATIKGEGVKGNYWNYEEFVRMGYLDGQVEVPNYCQ
notes: secreted from recombinant Pichia pastoris KM71H, purified by cation exchange chromatography, glycosylated
B1: the Km worked out at 210 ± 60 µM in data set [5], 380 ± 90 µM in data set [6], 290 ± 100 µM in data set [7] and 30 ± 6 µM in data set [8]. Moreover, the kcat in data set [5] amounted to 39.3 ± 1.2 s⁻¹; in data set [6], 9.3 ± 0.8 s⁻¹; in data set [7], 120 ± 13 s⁻¹; in data set [8], 30.3 ± 1.5 s⁻¹. Besides, the kcat/Km in data set [5] worked out at 187000 M⁻¹ s⁻¹; in data set [6] it was 24500 M⁻¹ s⁻¹; in data set [7], 414000 M⁻¹ s⁻¹; in data set [8] it was 1.01e+06 M⁻¹ s⁻¹.

The values above are taken from article PMC8523606, “Two fungal flavonoid-specific glucosidases/rutinosidases for rutin hydrolysis and rutinoside synthesis under homogeneous and heterogeneous reaction conditions” (AMB Express, 2021).
